Results reported in paper PMC3342439 (Journal of the American Chemical Society, 2012).
Substitutions are numbered along the chain they refer to.

Experiments:
Assay in all cases: BLI
[1] = target: T1, Germicidin synthase (Gcs) R317A (Streptomyces coelicolor, UniProt Q9K464 1-389, R317A)
T1 sequence (looked up): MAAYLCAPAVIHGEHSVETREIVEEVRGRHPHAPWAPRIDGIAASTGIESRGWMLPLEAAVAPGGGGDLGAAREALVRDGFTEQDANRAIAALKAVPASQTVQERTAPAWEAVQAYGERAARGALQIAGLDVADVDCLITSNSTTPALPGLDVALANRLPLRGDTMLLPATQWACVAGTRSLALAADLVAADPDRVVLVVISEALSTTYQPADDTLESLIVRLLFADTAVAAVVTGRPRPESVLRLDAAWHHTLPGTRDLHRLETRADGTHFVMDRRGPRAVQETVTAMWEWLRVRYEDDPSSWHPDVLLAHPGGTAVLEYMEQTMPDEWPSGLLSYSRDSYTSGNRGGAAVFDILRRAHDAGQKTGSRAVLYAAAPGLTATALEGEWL

[2] = target: T2, Germicidin synthase (Gcs) R277A (Streptomyces coelicolor, UniProt Q9K464 1-389, R277A)
T2 sequence (looked up): T1 sequence (looked up) with R277A, A317R

[3] = target: T3, Germicidin synthase (Gcs) R276/317A double mutant (Streptomyces coelicolor, UniProt Q9K464 1-389, R276/317A | R276/317A)
T3 sequence (looked up): T1 sequence (looked up) with R276A

[4] = target: T4, Germicidin synthase (Gcs), wild type (Streptomyces coelicolor, UniProt Q9K464 1-389)
T4 sequence (looked up): T1 sequence (looked up) with A317R

[5] = target: T5, Germicidin synthase (Gcs) R280A (Streptomyces coelicolor, UniProt Q9K464 1-389, R280A)
T5 sequence (looked up): T1 sequence (looked up) with R280A, A317R

[6] = target: T6, Germicidin synthase (Gcs) R276A (Streptomyces coelicolor, UniProt Q9K464 1-389, R276A)
T6 sequence (looked up): T1 sequence (looked up) with R276A, A317R

- Kd [1]: 161 nM
- koff [1]: 0.000407 s⁻¹
- kon [1]: 1810 M⁻¹ s⁻¹
- Kd [2]: 403 nM
- koff [2]: 0.000128 s⁻¹
- kon [2]: 695 M⁻¹ s⁻¹
- Kd [3]: 192 nM
- koff [3]: 0.00017 s⁻¹
- kon [3]: 892 M⁻¹ s⁻¹
- Kd [4]: 225 nM
- koff [4]: 0.00022 s⁻¹
- kon [4]: 1190 M⁻¹ s⁻¹
- Kd [5]: 184 nM
- koff [5]: 0.000122 s⁻¹
- kon [5]: 769 M⁻¹ s⁻¹
- Kd [6]: 185 nM
- koff [6]: 0.000253 s⁻¹
- kon [6]: 628 M⁻¹ s⁻¹
B1: Acyl carrier protein AcpP (Sco2389), biotinylated (natural protein, Streptomyces coelicolor, UniProt P72393 1-82, looked up)
chain: MAATQEEIVAGLAEIVNEIAGIPVEDVKLDKSFTDDLDVDSLSMVEVVVAAEERFDVKIPDDDVKNLKTVGDATKYILDHQA
modifications: biotin (EZ-Link NHS-LC-LC-biotin, 5:1 molar ratio of biotin to protein)
